Where a chain is given by its changes, count along the chain named. In names and notes the source's numbering stands.
Assays:
[1] = target: T1, TRBC1 (T cell receptor beta-chain constant domain 1), interaction partner protein injected in SPR (human, UniProt P01850 1-129, limits assumed); assay: SPR (Biacore T200), antibody captured on anti-human IgG chip, TRBC1 injected, 25 C, 1:1 Langmuir fit
T1 construct: also called TCR beta constant region 1
Procedure: (§1) Surface plasmon resonance (SPR) was carried out on several of antibody variants of hJOVI-1 to ascertain affinity, association and dissociation rates. The sequence details of these variants Mut1 to Mut15 used in the Examples section of the present patent application are included in Tables 1 and 2. These anti-TRBC antibody variants have specificity for either TRBC1 or TRBC2.
(§2) SPR experiments were performed using a Biacore T200 instrument using HBSP1 as the running and dilution buffer (GE Healthcare BioSciences). BIAevaluation software version 2.0 (GE Healthcare) was used for data processing. For determination of the binding kinetics, mouse anti-human IgG (GE Healthcare) was covalently coupled to a CM5 Sensor Chip (GE Healthcare). Anti-TRBC1 or anti-TRBC2 antibodies were captured onto the flow cell, and various concentrations of interaction partner protein (TRBC1 or TRBC2) were injected over the flow cell at a flow rate of […] at a temperature of 25° C. A double reference subtraction was performed using buffer alone. Kinetic rate constants were obtained by curve fitting according to a 1:1 Langmuir binding model.

[2] = target: T2, TRBC2 on HPB-ALL cells engineered to express only TRBC2 (human, UniProt A0A5B9 1-178); assay: internalisation of pHrodo red conjugated antibody, flow cytometry, 24 h
T2 construct: whole, on cells; also called HPB-ALL TRBC2; HPB-ALL TRBC2+
Procedure: (§3) Cell uptake of the anti-TRBC1 antibody hJOVI-1 and the anti-TRBC2 antibody KFN was tested on HPB-ALL cells that were engineered to express only TRBC1, only TRBC2, or which were the TRBC was knocked-out (KO). To this aim, the pH-sensitive fluorophore
(§4) Zenon pHrodo iFL red (Thermo Scientific), which has a 560/585 nm spectrum, was used to conjugate hJOVI-1 and KFN in IgG format following the manufacturer's recommendations. The irrelevant anti-HEL antibody was also conjugated for use as control. The conjugated antibodies were incubated with HPB-ALL TRBC1, HPB-ALL TRBC2 and HPB-ALL KO cells for 24 h at 37° C., 5% CO2. Test antibodies hJOVI-1, KFN, and anti-HEL were applied at 5 μg/ml in a 96-well plate with 5×10⁴ cells/well in 100 μl of RPMI 10% FBS. After 24 h, cells were washed, harvested and stained with 1:100 LIVE/DEAD™ Fixable Violet Dead Cell Stain (Thermofisher) for 10 min before being analysed by flow cytometry using a Fortessa flow cytometer (BD).

[3] = target: T2, TRBC2 on HPB-ALL cells engineered to …; assay: internalisation of pHrodo green conjugated antibody, flow cytometry
[4] = target: T2, TRBC2 on HPB-ALL cells engineered to …; assay: internalisation (9h), pHrodo green MFI, flow cytometry
[5] = target: T3, TRBC2 (T cell receptor beta-chain constant domain 2), interaction partner protein injected in SPR (human, UniProt A0A5B9 1-129, limits assumed); assay: SPR (Biacore T200), antibody captured on anti-human IgG chip, TRBC2 injected, 25 C, 1:1 Langmuir fit
T3 construct: the construct is not described; also called TCR beta constant region 2
T3 sequence (A0A5B9 1-129 limits assumed): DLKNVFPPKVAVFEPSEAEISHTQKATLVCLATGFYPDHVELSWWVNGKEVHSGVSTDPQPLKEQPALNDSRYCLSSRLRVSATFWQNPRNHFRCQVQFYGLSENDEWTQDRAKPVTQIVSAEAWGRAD
Procedure: as §1, §2

[6] = target: T4, TRBC1 on HPB-ALL cells engineered to express only TRBC1 (human, UniProt P01850 1-176); assay: internalisation of pHrodo red conjugated antibody, flow cytometry, 24 h
T4 construct: whole, on cells; also called HPB-ALL TRBC1; HPB-ALL TRBC1+
Procedure: as §3, §4

[7] = target: T4, TRBC1 on HPB-ALL cells engineered to …; assay: internalisation (9h), pHrodo green MFI, flow cytometry

T1 sequence (P01850 1-129 limits assumed): as the sequence (A0A5B9 1-129 limits assumed) above, with K3N, N4K, K9E, Y36F counted along it

B1: hJOVI-1 (humanised JOVI-1 antibody, reference antibody) (antibody, V domains shown)
VH: QVQLVQSGAEVKKPGASVKVSCKASGYTFTGYVMHWVRQAPGQGLEWMGFINPYNDDIQSNERFRGRVTMTRDTSISTAYMELSRLRSDDTAVYYCARGAGYNFDGAYRFFDFWGQGTMVTVSS
VL: DIVMTQSPLSLPVTPGEPASISCRSSQRLVHSNGNTYLHWYLQKPGQSPRLLIYRVSNRFPGVPDRFSGSGSGTDFTLKISRVEAEDVGVYYCSQSTHVPYTFGQGTKLEIK
notes: Tested in IgG format and captured by anti-human IgG in SPR; also called aTRBC1; anti-TRBC1 antibody hJOVI-1
Q: B1 was tested. Which Kd [1] did it give?
A: The Kd was 0.00257 µM.

Q: What about the koff [1] of the same binder?
A: The koff was 0.000618 s⁻¹.

Q: What about the kon [1] of the same binder?
A: The kon was 238000 M⁻¹ s⁻¹.

Q: Does B1 bind [2]?
A: Result: no binding (tested: 5 µg/ml)

B2: Mut5 (antibody, V domains shown)
VH: B1 VH with Y32F
VL: B1 VL
notes: Variant of hJOVI-1; captured by anti-human IgG in SPR; also called VH Y32F
Q: Which results are given for B2?
A: Kd [1]: 0.426 µM; koff [1]: 0.0457 s⁻¹; kon [1]: 107000 M⁻¹ s⁻¹

B3: Mut8 (antibody, V domains shown)
VH: B1 VH with G31S
VL: B1 VL
notes: Variant of hJOVI-1; captured by anti-human IgG in SPR; also called VH G31S
Q: Which results are given for B3?
A: Kd [1]: 0.00769 µM; koff [1]: 0.000756 s⁻¹; kon [1]: 98300 M⁻¹ s⁻¹

B4: Mut9 (antibody, V domains shown)
VH: B1 VH with G26P, T28K
VL: B1 VL
notes: Variant of hJOVI-1; captured by anti-human IgG in SPR; also called VH G26P, T28K
Q: What does the source list for B4?
A: Kd [1]: 0.0289 µM; koff [1]: 0.00248 s⁻¹; kon [1]: 85800 M⁻¹ s⁻¹

B5: Mut10 (antibody, V domains shown)
VH: B1 VH with Y102M
VL: B1 VL
notes: Variant of hJOVI-1; captured by anti-human IgG in SPR; also called VH Y102M
Q: B5 was tested. Which Kd [1] did it give?
A: Its Kd is 0.09 µM.

Q: And the koff [1]?
A: Its koff is 0.00951 s⁻¹.

Q: And the kon [1]?
A: Its kon is 106000 M⁻¹ s⁻¹.

B6: Mut11 (antibody, V domains shown)
VH: B1 VH with G106A
VL: B1 VL
notes: Variant of hJOVI-1; IgG format; also called VH G106A; anti-TRBC1 antibody Mut11
Q: Does B6 bind [3]?
A: Result: no binding

Q: And the Kd [1]?
A: The Kd was 0.203 µM.

Q: What about the koff [1] of the same binder?
A: Its koff is 0.0177 s⁻¹.

Q: And the kon [1]?
A: Its kon is 87300 M⁻¹ s⁻¹.

B7: Mut12 (antibody, V domains shown)
VH: B1 VH with T28K, Y32F, A100N, N103L
VL: B1 VL with N35K
notes: Variant of hJOVI-1; captured by anti-human IgG in SPR; also called VH T28K, Y32F, A100N, N103L; VL N35K
Q: What does the source list for B7?
A: Kd [1]: 0.707 µM; koff [1]: 0.0613 s⁻¹; kon [1]: 86800 M⁻¹ s⁻¹

B8: Mut13 (antibody, V domains shown)
VH: B1 VH with T28K, Y32F, A100N
VL: B1 VL with N35K
notes: Variant of hJOVI-1; captured by anti-human IgG in SPR; also called VH T28K, Y32F, A100N; VL N35K
Q: How did the Kd [1] turn out when B8 was run?
A: Its Kd is 1 µM.

Q: And the koff [1]?
A: The koff was 0.108 s⁻¹.

Q: And the kon [1]?
A: The kon was 107000 M⁻¹ s⁻¹.

B9: Mut14 (antibody, V domains shown)
VH: B1 VH with T28K, Y32F, A100N, A107S
VL: B1 VL
notes: Variant of hJOVI-1; IgG format; also called VH T28K, Y32F, A100N, A107S
Q: B9 was tested. Which Kd [1] did it give?
A: Its Kd is 3.59 µM.

Q: And the koff [1]?
A: Its koff is 0.323 s⁻¹.

Q: And the kon [1]?
A: Its kon is 90000 M⁻¹ s⁻¹.

B10: Mut11-MMAE (antibody, V domains shown)
VH: B1 VH with G106A
VL: B1 VL
modifications: mc-vc-PAB-MMAE conjugated to reduced inter-chain cysteines; drug-antibody ratio 3.1
notes: also called MMAE-conjugated Mut11; MMAE conjugated Mut11
Q: Does B10 bind [4]?
A: Result: no binding (tested: not printed on the sheet)

B11: Mut3 (KFN) (antibody, V domains shown)
VH: B1 VH with T28K, Y32F, A100N
VL: B1 VL
notes: Variant of hJOVI-1; IgG format; also called anti-TRBC2 antibody KFN; anti-TRBC2 clone KFN
Q: What does the source list for B11?
A: Kd [5]: 0.479 µM; koff [5]: 0.0386 s⁻¹; kon [5]: 83000 M⁻¹ s⁻¹; binding result [6]: no binding (tested: 5 µg/ml)

B12: Mut4 (RFN) (antibody, V domains shown)
VH: B1 VH with T28R, Y32F, A100N
VL: B1 VL
notes: Variant of hJOVI-1; captured by anti-human IgG in SPR
Q: With B12 as the binder, how does the Kd [5] read?
A: The Kd was 0.582 µM.

Q: What about the koff [5] of the same binder?
A: Its koff is 0.045 s⁻¹.

Q: And the kon [5]?
A: The kon was 77600 M⁻¹ s⁻¹.

B13: Mut15 (antibody, V domains shown)
VH: B1 VH with T28K, Y32F, A100N, Y102L, N103M
VL: B1 VL with N35R
notes: Variant of hJOVI-1; IgG format; also called TRBC2 antibody Mut15; KFN variant Mut15
Q: Does B13 bind [7]?
A: Result: no binding (tested: not printed on the sheet)

Q: What about the Kd [5] of the same binder?
A: The Kd was 1.9 µM.

Q: What about the koff [5] of the same binder?
A: Its koff is 0.0832 s⁻¹.

Q: And the kon [5]?
A: Its kon is 43800 M⁻¹ s⁻¹.

B14: Mut15-MMAE (antibody, V domains shown)
VH: B1 VH with T28K, Y32F, A100N, Y102L, N103M
VL: B1 VL with N35R
modifications: mc-vc-PAB-MMAE conjugated to reduced inter-chain cysteines; drug-antibody ratio 3.2
notes: also called MMAE-conjugated Mut15; MMAE conjugated Mut15
Q: Does B14 bind [7]?
A: Result: no binding (tested: not printed on the sheet)

Source: US20230109275A1 (AUTOLUS, published 2023)
